Experimental findings from patent US20250197513A1 (University of Texas, published 2025) are described below.

This data set deals with the molecule itself. The experiment in a line: dimerization assay (cross-linking, immunoprecipitation) after OSM stimulation. How it is done: Dimerization assay: Dimerization assay was performed as mentioned previously (Bublil et al., 2010; Turk and Chapkin, 2015) with some modifications. […] The […] were incubated with non-permeable cross-linking reagent, 3 mM bis (sulphosuccinimidyl) suberate [BS3 (Pierce)], cross-linking reagent on ice for 30 min and subsequently quenched with 250 mM Glycine. The cells were washed with ice cold PBS and cells were lysed using RIPA buffer as mentioned earlier.

B1: OSMR on human ovarian cancer cells (HEYA8, OVCAR4, A2780) (receptor, UniProt Q99650 28-979, looked up)
chain: ERLPLTPVSLKVSTNSTRQSLHLQWTVHNLPYHQELKMVFQIQISRIETSNVIWVGNYSTTVKWNQVLHWSWESELPLECATHFVRIKSLVDDAKFPEPNFWSNWSSWEEVSVQDSTGQDILFVFPKDKLVEEGTNVTICYVSRNIQNNVSCYLEGKQIHGEQLDPHVTAFNLNSVPFIRNKGTNIYCEASQGNVSEGMKGIVLFVSKVLEEPKDFSCETEDFKTLHCTWDPGTDTALGWSKQPSQSYTLFESFSGEKKLCTHKNWCNWQITQDSQETYNFTLIAENYLRKRSVNILFNLTHRVYLMNPFSVNFENVNATNAIMTWKVHSIRNNFTYLCQIELHGEGKMMQYNVSIKVNGEYFLSELEPATEYMARVRCADASHFWKWSEWSGQNFTTLEAAPSEAPDVWRIVSLEPGNHTVTLFWKPLSKLHANGKILFYNVVVENLDKPSSSELHSIPAPANSTKLILDRCSYQICVIANNSVGASPASVIVISADPENKEVEEERIAGTEGGFSLSWKPQPGDVIGYVVDWCDHTQDVLGDFQWKNVGPNTTSTVISTDAFRPGVRYDFRIYGLSTKRIACLLEKKTGYSQELAPSDNPHVLVDTLTSHSFTLSWKDYSTESQPGFIQGYHVYLKSKARQCHPRFEKAVLSDGSECCKYKIDNPEEKALIVDNLKPESFYEFFITPFTSAGEGPSATFTKVTTPDEHSSMLIHILLPMVFCVLLIMVMCYLKSQWIKETCYPDIPDPYKSSILSLIKFKENPHLIIMNVSDCIPDAIEVVSKPEGTKIQFLGTRKSLTETELTKPNYLYLLPTEKNHSGPGPCICFENLTYNQAASDSGSCGHVPVSPKAPSMLGLMTSPENVLKALEKNYMNSLGEIPAGETSLNYVSQLASPMFGDKDSLPTNPVEAPHCSEYKMQMAVSLRLALPPPTENSSLSSITLLDPGEHYC
notes: whole, on cells; also called Oncostatin M receptor; OMSR receptors
On to B1, for which the binding result is on record as “binds”.
